Reference: the supplement of paper PMC10724198
± gives the standard deviation of the averaged measurements.

test system: Saccharomyces cerevisiae; assay: protein stability index of tFT-peptide fusion (C-terminal peptide) (PSI (0-1 scale)); higher = more stable (slower turnover); details: genetic background: wild type; temperature: 30 C
Procedure: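 Multiplexed protein stability (MPS) profiling in S. cerevisiae. Random 12-aa peptides (tFT-X12 library) are fused to the C-terminus of a sfGFP-mCherry tandem fluorescent timer, after mCherry and a GGGS linker. Cells are FACS-sorted into 8 mCherry/sfGFP bins and deep-sequenced. The protein stability index (PSI) is the read-weighted bin average, scaled from 0 (unstable) to 1 (stable). Only peptides with >10 reads are reported; cells were grown at 30 °C in SC-His with glucose.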
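Also: PSI is a weighted mean of sequencing reads over stability bins, variants kept only with over 10 reads, mCherry proximal and sfGFP distal, peptide attached via GGGS linker.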

First: LFSDAWVLTDWW
Second: LFSDLCRVAWSL
The protein stability index of the first is higher: 0.753 ± 0.044 for the first, 0.615 ± 0.021 for the second.

LFSPTFPTIYYA and LFSSFFSAAFAS are within error of each other in protein stability index: 0.759 ± 0.059 for the first, 0.677 ± 0.064 for the second.

LFTGPPPSPPPP and LFTLSGAPLALP are within error of each other in protein stability index: 0.699 ± 0.034 for the first, 0.729 ± 0.015 for the second.

LFVCVFRPWLGG and LFVGSSPPPSPP are within error of each other in protein stability index: 0.766 ± 0.09 for the first, 0.643 ± 0.046 for the second.

LGACAGSGFKGV and LGCCVFGFVFPS are within error of each other in protein stability index: 0.713 ± 0.033 for the first, 0.672 ± 0.047 for the second.

LGCDDWIDWSRG and LGFFGGGRWAGG are within error of each other in protein stability index: 0.694 ± 0.054 for the first, 0.717 ± 0.025 for the second.

First: LGGGAGKRVCEG
Second: LGGGGGGGGRLR
The protein stability index of the first is higher: 0.685 ± 0.014 for the first, 0.618 ± 0.0091 for the second.

First: LGGGGGLTAAGV
Second: LGGGVLDVRGQL
The protein stability index of the first is higher: 0.743 ± 0.016 for the first, 0.711 ± 0.011 for the second.

LGGHLFPLGPRR and LGGVKATGLGQL are within error of each other in protein stability index: 0.664 ± 0.007 for the first, 0.686 ± 0.04 for the second.

LGGVLVGDWVGI and LGGVRWNPGCRG are within error of each other in protein stability index: 0.7125 ± 0.0042 for the first, 0.661 ± 0.047 for the second.

LGLGIWDCFCVL and LGLGPKNLSYSE are within error of each other in protein stability index: 0.685 ± 0.018 for the first, 0.676 ± 0.043 for the second.

Going from LGLLVLARFSPL to LGRGGVAWGAWW, the protein stability index rises from 0.7076 ± 0.0053 to 0.836 ± 0.11.

LGSIKCKLSSGI and LGSLSPRLPSLR are within error of each other in protein stability index: 0.666 ± 0.052 for the first, 0.672 ± 0.091 for the second.

Going from LGTGKSGLCVWE to LGVCVGFRLLWV, the protein stability index falls from 0.665 ± 0.012 to 0.579 ± 0.026.

LGVFNRMKHSKH and LGVSYAPLPFLS are within error of each other in protein stability index: 0.6702 ± 0.0029 for the first, 0.65 ± 0.03 for the second.

Going from LGWGRWFWGVRG to LGYSYHGVASRG, the protein stability index rises from 0.653 ± 0.026 to 0.698 ± 0.013.

Compared with LHCKRPTPLTDS, LHGHFIRLIRIG is lower in protein stability index: 0.657 ± 0.019 for the first, 0.477 ± 0.054 for the second.

Compared with LHLGHAGQACPA, LHLPLPPLQLSL is higher in protein stability index: 0.6277 ± 0.0022 for the first, 0.697 ± 0.0072 for the second.

Compared with LHPGPPASPPPL, LHPRCVLPHFRV is lower in protein stability index: 0.7127 ± 0.0053 for the first, 0.627 ± 0.032 for the second.

LICLTIHNEGSK and LIDKPNNGVWIS are within error of each other in protein stability index: 0.583 ± 0.017 for the first, 0.587 ± 0.042 for the second.

LIDLLRQVNVLR and LIENVGDLETSR are within error of each other in protein stability index: 0.649 ± 0.0096 for the first, 0.665 ± 0.059 for the second.

LIGALSDCGFLG and LIHSSCSCPWCD are within error of each other in protein stability index: 0.683 ± 0.031 for the first, 0.666 ± 0.011 for the second.

First: LIILKNKRKNKI
Second: LILFQYFYLPMT
The protein stability index of the first is higher: 0.704 ± 0.04 for the first, 0.517 ± 0.044 for the second.

Compared with LIPALPPPLPPP, LIPCFSPLPSPF is higher in protein stability index: 0.673 ± 0.0056 for the first, 0.721 ± 0.018 for the second.

First: LIPFAFVHPVFL
Second: LIQKQTGKKKKP
The protein stability index of the first is lower: 0.62 ± 0.048 for the first, 0.7279 ± 0.0051 for the second.

LIRGVVVGLDGD and LIRIHPNGPKFM are within error of each other in protein stability index: 0.685 ± 0.021 for the first, 0.708 ± 0.083 for the second.

Compared with LIRYVPFSYVLV, LISLGTYLINGF is higher in protein stability index: 0.599 ± 0.007 for the first, 0.6441 ± 0.0051 for the second.

Compared with LISLSHLSANQM, LISNEGASRWDL is lower in protein stability index: 0.665 ± 0.012 for the first, 0.625 ± 0.018 for the second.

LISRQFPNHGWT and LITDSQWLSSLS are within error of each other in protein stability index: 0.675 ± 0.044 for the first, 0.731 ± 0.02 for the second.

Going from LITGRGFGFVVV to LIWRQEDGGPMT, the protein stability index rises from 0.674 ± 0.024 to 0.747 ± 0.01.

LKGSVGGVCHTC and LKKIEPRKNDKI are within error of each other in protein stability index: 0.709 ± 0.032 for the first, 0.719 ± 0.025 for the second.

Compared with LKKKSHRIKRSI, LKMRIYEKNGKE is higher in protein stability index: 0.58471 ± 0.00035 for the first, 0.669 ± 0.049 for the second.

LLCIPFPTRSLI and LLEGSFFCGNSS are within error of each other in protein stability index: 0.803 ± 0.28 for the first, 0.726 ± 0.037 for the second.

LLFLLGTLYHPY and LLFTFFFLLLFS are within error of each other in protein stability index: 0.635 ± 0.11 for the first, 0.527 ± 0.23 for the second.

LLFTFLPFRTVR and LLGASIIGQFYL are within error of each other in protein stability index: 0.709 ± 0.044 for the first, 0.758 ± 0.011 for the second.

Going from LLGDPGDFFPAS to LLGLWSFLIPPS, the protein stability index falls from 0.713 ± 0.028 to 0.677 ± 0.0023.

LLGRIASCKIWL and LLHFSSPPLLPV are within error of each other in protein stability index: 0.657 ± 0.019 for the first, 0.634 ± 0.055 for the second.

LLHVPIVFPRLI and LLHWGRWSRGRR are within error of each other in protein stability index: 0.62 ± 0.043 for the first, 0.694 ± 0.071 for the second.

First: LLIHLKDFYCFV
Second: LLLFPSSFIFFY
The protein stability index of the first is higher: 0.855 ± 0.019 for the first, 0.629 ± 0.055 for the second.

LLLGSFFNKPTT and LLLLFWSGSCGC are within error of each other in protein stability index: 0.678 ± 0.035 for the first, 0.648 ± 0.013 for the second.

LLLPIIPRKLDL gave a protein stability index of 0.673 ± 0.022.
